Measured values: the supplement of paper PMC10567573

B1: PSD2 (parent)
chain: PLMGETQERERVLTHFSRRYCQCN

Variants of: B1
Test: protein stability index of a GFP-peptide fusion (GPS, HEK-293T) (PSI 1-6); higher = more stable
Details: c terminus: a fixed tail appended
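Also: lentivirally expressed fusions sorted by FACS into six bins by GFP to DsRed ratio, PSI derived from sequencing read proportions per bin multiplied by bin number.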

**Q.** Which protein stability index does the source give for PLMGETQERERVLTHFSRRYCQCR here?
**A.** The protein stability index was 2.14.

**Q.** With PLMGETQERERVLTHFSRRYCQCT as the variant, how does the protein stability index read?
**A.** The protein stability index was 3.74.

**Q.** Which protein stability index does the source give for PLMGETQERERVLTHFSRRYCQCP here?
**A.** The protein stability index was 3.02.

**Q.** With PLMGETQERERVLTHFSRRYCQCY as the variant, how does the protein stability index read?
**A.** The protein stability index was 2.22.

**Q.** With PLMGETQERERVLTHFSRRYCQCV as the variant, how does the protein stability index read?
**A.** The protein stability index was 2.69.

**Q.** Which protein stability index does the source give for PLMGETQERERVLTHFSRRYCQCS here?
**A.** Its protein stability index is 3.38.

**Q.** For PLMGETQERERVLTHFSRRYCQCQ, which protein stability index is on record?
**A.** Its protein stability index is 2.88.
